Among the data in patent US20140161732A1 are % inhibition of 125I-labeled VEGF binding values, retold here.

For test [1], the target named is T1, KDR expressed on transiently transfected 293H cells (human), P35968. The test is described as follows: competition with 125I-VEGF on KDR-transfected 293H cells (mock subtracted), peptide at 0.3 µM. The settings on record: remark: other sources report otherwise.
The target in test [2] is T1, KDR expressed on transiently …. The test is described as follows: competition with 125I-VEGF on KDR-transfected 293H cells (mock subtracted), peptide at 30 µM. The settings on record: remark: other sources report otherwise.

Bridge positions count the residues as written; N and C are the ends. Side chains are listed from the residue outwards. * marks the point of attachment. Biotin = O=C1N[C@H]2[C@H](CS[C@H]2CCCCC(=O)*)N1; AEEA = NCCOCCOCC(=O)O

T1 sequence (P35968 20-1356): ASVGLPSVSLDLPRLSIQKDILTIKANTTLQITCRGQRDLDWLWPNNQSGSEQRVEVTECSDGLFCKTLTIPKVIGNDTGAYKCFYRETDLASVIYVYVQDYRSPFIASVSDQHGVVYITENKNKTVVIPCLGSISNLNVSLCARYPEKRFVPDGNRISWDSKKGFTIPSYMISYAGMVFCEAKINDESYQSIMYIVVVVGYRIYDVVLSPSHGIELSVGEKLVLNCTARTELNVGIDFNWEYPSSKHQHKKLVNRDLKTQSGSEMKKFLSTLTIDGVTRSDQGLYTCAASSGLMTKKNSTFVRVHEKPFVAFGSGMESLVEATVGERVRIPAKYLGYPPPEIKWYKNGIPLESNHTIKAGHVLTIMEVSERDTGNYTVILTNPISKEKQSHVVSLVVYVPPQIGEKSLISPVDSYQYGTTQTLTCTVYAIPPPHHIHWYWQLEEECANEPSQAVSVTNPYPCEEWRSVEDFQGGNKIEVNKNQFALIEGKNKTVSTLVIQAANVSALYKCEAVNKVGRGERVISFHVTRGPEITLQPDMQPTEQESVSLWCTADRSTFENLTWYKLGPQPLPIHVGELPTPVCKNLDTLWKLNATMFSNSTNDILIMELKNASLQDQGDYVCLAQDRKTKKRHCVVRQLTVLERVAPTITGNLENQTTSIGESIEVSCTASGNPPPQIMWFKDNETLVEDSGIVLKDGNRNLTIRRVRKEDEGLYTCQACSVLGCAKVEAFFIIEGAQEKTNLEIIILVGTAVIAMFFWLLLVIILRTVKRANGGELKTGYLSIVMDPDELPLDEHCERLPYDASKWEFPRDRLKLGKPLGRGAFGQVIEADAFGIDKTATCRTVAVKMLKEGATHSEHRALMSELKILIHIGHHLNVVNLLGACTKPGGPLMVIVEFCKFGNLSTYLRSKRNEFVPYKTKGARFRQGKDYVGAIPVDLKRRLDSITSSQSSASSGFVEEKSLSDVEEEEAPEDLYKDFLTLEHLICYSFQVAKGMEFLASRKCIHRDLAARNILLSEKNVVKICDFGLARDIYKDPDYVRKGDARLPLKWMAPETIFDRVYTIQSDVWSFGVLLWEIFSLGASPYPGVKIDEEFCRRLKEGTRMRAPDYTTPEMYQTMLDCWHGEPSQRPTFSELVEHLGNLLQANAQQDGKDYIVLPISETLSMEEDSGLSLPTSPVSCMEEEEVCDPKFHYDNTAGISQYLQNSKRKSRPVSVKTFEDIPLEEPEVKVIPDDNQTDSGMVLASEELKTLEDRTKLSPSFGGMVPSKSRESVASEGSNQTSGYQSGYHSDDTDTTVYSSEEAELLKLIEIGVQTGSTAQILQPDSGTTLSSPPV

With Ac-AGPKWCEEDWYYCMITGTGGGK([AEEA-AEEA-Biotin])-NH2 (disulfide 6-13 (inferred)) [biotinylated SEQ ID NO:264 with a JJ spacer], the % inhibition of 125I-labeled VEGF binding in test [1] is 24.4%; in test [2] it was 48%.
